# Data taken from patent publication US20240358847A1 (Merck Sharp & Dohme, published 2024).
# T1: TROP2 on BxPC-3 and MDA-MB-231-KWL cells (human, UniProt P09758 27-323)
# T1 construct: whole, on cells
# T1 sequence (looked up): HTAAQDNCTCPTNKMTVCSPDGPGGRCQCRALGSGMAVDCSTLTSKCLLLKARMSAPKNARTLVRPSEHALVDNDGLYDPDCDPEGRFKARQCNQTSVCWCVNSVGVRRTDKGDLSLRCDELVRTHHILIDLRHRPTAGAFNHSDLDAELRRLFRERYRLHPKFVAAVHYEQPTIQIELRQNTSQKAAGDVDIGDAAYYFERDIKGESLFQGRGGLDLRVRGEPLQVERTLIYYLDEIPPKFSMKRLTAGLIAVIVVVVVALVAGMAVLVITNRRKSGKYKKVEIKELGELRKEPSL
# What was measured:
# [1] = target: T1, TROP2 on BxPC-3 and MDA-MB-231-KWL cells; test: on-cell ELISA, BxPC-3 cells (TROP2 high); set-up: unit not given beside the values
# Method: (§1) Cells were plated in duplicate onto 96-well plates, and primary antibody was diluted in cell culture medium with a starting concentration of 30 μg/mL (200 nM) with a dilution factor of 1:5. […] Data was plotted and analyzed. EC50 ([…]) was measured along with area under the curve (AUC) for each cell line.
# [2] = target: T1, TROP2 on BxPC-3 and MDA-MB-231-KWL cells; test: on-cell ELISA, MDA-MB-231-KWL cells (TROP2 low); set-up: unit not given beside the values
# Method: as §1
# [3] = target: T1, TROP2 on BxPC-3 and MDA-MB-231-KWL cells; test: on-cell ELISA, BxPC-3 vs MDA-MB-231-KWL cells
# Method: as §1
Binder,AUC (BxPC-3) [1],AUC (MDA-MB-231-KWL) [2],ΔAUC [3]
"mAb_LC_Hm_W106E (antibody, human IgG1, kappa) heavy: not shown light: DIQLTQSPSSLSASVGDRVSITCKASQDVSIAVAWYQQKPGKAPKLLIYSASYRYTGVPDRFSGSGSGTDFTLTISSLQPEDFAVYYCQQHYITPLTFGAGTKVEIKRTVAAPSVFIFPPSDEQLKSGTASVVCLLNNFYPREAKVQWKVDNALQSGNSQESVTEQDSKDSTYSLSSTLTLSKADYEKHKVYACEVTHQGLSSPVTKSFNRGEC",140,22.2,117
"mAb_LC_Hm_W106L (antibody, human IgG1, kappa) heavy: not shown light: DIQLTQSPSSLSASVGDRVSITCKASQDVSIAVAWYQQKPGKAPKLLIYSASYRYTGVPDRFSGSGSGTDFTLTISSLQPEDFAVYYCQQHYITPLTFGAGTKVEIKRTVAAPSVFIFPPSDEQLKSGTASVVCLLNNFYPREAKVQWKVDNALQSGNSQESVTEQDSKDSTYSLSSTLTLSKADYEKHKVYACEVTHQGLSSPVTKSFNRGEC",251,60.9,191
"mAb_LC_Hm_Y32E (antibody, human IgG1, kappa) heavy: not shown light: DIQLTQSPSSLSASVGDRVSITCKASQDVSIAVAWYQQKPGKAPKLLIYSASYRYTGVPDRFSGSGSGTDFTLTISSLQPEDFAVYYCQQHYITPLTFGAGTKVEIKRTVAAPSVFIFPPSDEQLKSGTASVVCLLNNFYPREAKVQWKVDNALQSGNSQESVTEQDSKDSTYSLSSTLTLSKADYEKHKVYACEVTHQGLSSPVTKSFNRGEC",298,193,104
"mAb_LC_Hm_Y105S (antibody, human IgG1, kappa) heavy: not shown light: DIQLTQSPSSLSASVGDRVSITCKASQDVSIAVAWYQQKPGKAPKLLIYSASYRYTGVPDRFSGSGSGTDFTLTISSLQPEDFAVYYCQQHYITPLTFGAGTKVEIKRTVAAPSVFIFPPSDEQLKSGTASVVCLLNNFYPREAKVQWKVDNALQSGNSQESVTEQDSKDSTYSLSSTLTLSKADYEKHKVYACEVTHQGLSSPVTKSFNRGEC",268,80,188
"mAb_LC_Hm_Y107I (antibody, human IgG1, kappa) heavy: not shown light: DIQLTQSPSSLSASVGDRVSITCKASQDVSIAVAWYQQKPGKAPKLLIYSASYRYTGVPDRFSGSGSGTDFTLTISSLQPEDFAVYYCQQHYITPLTFGAGTKVEIKRTVAAPSVFIFPPSDEQLKSGTASVVCLLNNFYPREAKVQWKVDNALQSGNSQESVTEQDSKDSTYSLSSTLTLSKADYEKHKVYACEVTHQGLSSPVTKSFNRGEC",265,163,101
"mAb_LC_Hm_Y107N (antibody, human IgG1, kappa) heavy: not shown light: DIQLTQSPSSLSASVGDRVSITCKASQDVSIAVAWYQQKPGKAPKLLIYSASYRYTGVPDRFSGSGSGTDFTLTISSLQPEDFAVYYCQQHYITPLTFGAGTKVEIKRTVAAPSVFIFPPSDEQLKSGTASVVCLLNNFYPREAKVQWKVDNALQSGNSQESVTEQDSKDSTYSLSSTLTLSKADYEKHKVYACEVTHQGLSSPVTKSFNRGEC",317,230,86.5
"mAb_Lm_A32P_HC (antibody, human IgG1, kappa) heavy: not shown light: DIQLTQSPSSLSASVGDRVSITCKASQDVSIPVAWYQQKPGKAPKLLIYSASYRYTGVPDRFSGSGSGTDFTLTISSLQPEDFAVYYCQQHYITPLTFGAGTKVEIKRTVAAPSVFIFPPSDEQLKSGTASVVCLLNNFYPREAKVQWKVDNALQSGNSQESVTEQDSKDSTYSLSSTLTLSKADYEKHKVYACEVTHQGLSSPVTKSFNRGEC",256,64.3,192
"mAb_Lm_A32Q_HC (antibody, human IgG1, kappa) heavy: not shown light: DIQLTQSPSSLSASVGDRVSITCKASQDVSIQVAWYQQKPGKAPKLLIYSASYRYTGVPDRFSGSGSGTDFTLTISSLQPEDFAVYYCQQHYITPLTFGAGTKVEIKRTVAAPSVFIFPPSDEQLKSGTASVVCLLNNFYPREAKVQWKVDNALQSGNSQESVTEQDSKDSTYSLSSTLTLSKADYEKHKVYACEVTHQGLSSPVTKSFNRGEC",142,17.8,124
"mAb_Lm_D28H_HC (antibody, human IgG1, kappa) heavy: not shown light: DIQLTQSPSSLSASVGDRVSITCKASQHVSIAVAWYQQKPGKAPKLLIYSASYRYTGVPDRFSGSGSGTDFTLTISSLQPEDFAVYYCQQHYITPLTFGAGTKVEIKRTVAAPSVFIFPPSDEQLKSGTASVVCLLNNFYPREAKVQWKVDNALQSGNSQESVTEQDSKDSTYSLSSTLTLSKADYEKHKVYACEVTHQGLSSPVTKSFNRGEC",300,214,86.6
"mAb_Lm_H91K_HC (antibody, human IgG1, kappa) heavy: not shown light: DIQLTQSPSSLSASVGDRVSITCKASQDVSIAVAWYQQKPGKAPKLLIYSASYRYTGVPDRFSGSGSGTDFTLTISSLQPEDFAVYYCQQKYITPLTFGAGTKVEIKRTVAAPSVFIFPPSDEQLKSGTASVVCLLNNFYPREAKVQWKVDNALQSGNSQESVTEQDSKDSTYSLSSTLTLSKADYEKHKVYACEVTHQGLSSPVTKSFNRGEC",294,162,132
"mAb_Lm_I93G_HC (antibody, human IgG1, kappa) heavy: not shown light: DIQLTQSPSSLSASVGDRVSITCKASQDVSIAVAWYQQKPGKAPKLLIYSASYRYTGVPDRFSGSGSGTDFTLTISSLQPEDFAVYYCQQHYGTPLTFGAGTKVEIKRTVAAPSVFIFPPSDEQLKSGTASVVCLLNNFYPREAKVQWKVDNALQSGNSQESVTEQDSKDSTYSLSSTLTLSKADYEKHKVYACEVTHQGLSSPVTKSFNRGEC",305,220,85.3
"mAb_Lm_Q89V_HC (antibody, human IgG1, kappa) heavy: not shown light: DIQLTQSPSSLSASVGDRVSITCKASQDVSIAVAWYQQKPGKAPKLLIYSASYRYTGVPDRFSGSGSGTDFTLTISSLQPEDFAVYYCVQHYITPLTFGAGTKVEIKRTVAAPSVFIFPPSDEQLKSGTASVVCLLNNFYPREAKVQWKVDNALQSGNSQESVTEQDSKDSTYSLSSTLTLSKADYEKHKVYACEVTHQGLSSPVTKSFNRGEC",299,201,98.1
"mAb_Lm_S30R_HC (antibody, human IgG1, kappa) heavy: not shown light: DIQLTQSPSSLSASVGDRVSITCKASQDVRIAVAWYQQKPGKAPKLLIYSASYRYTGVPDRFSGSGSGTDFTLTISSLQPEDFAVYYCQQHYITPLTFGAGTKVEIKRTVAAPSVFIFPPSDEQLKSGTASVVCLLNNFYPREAKVQWKVDNALQSGNSQESVTEQDSKDSTYSLSSTLTLSKADYEKHKVYACEVTHQGLSSPVTKSFNRGEC",216,47.1,169
"mAb_Lm_S50L_HC (antibody, human IgG1, kappa) heavy: not shown light: DIQLTQSPSSLSASVGDRVSITCKASQDVSIAVAWYQQKPGKAPKLLIYLASYRYTGVPDRFSGSGSGTDFTLTISSLQPEDFAVYYCQQHYITPLTFGAGTKVEIKRTVAAPSVFIFPPSDEQLKSGTASVVCLLNNFYPREAKVQWKVDNALQSGNSQESVTEQDSKDSTYSLSSTLTLSKADYEKHKVYACEVTHQGLSSPVTKSFNRGEC",133,4.22,129
"mAb_Lm_S50T_HC (antibody, human IgG1, kappa) heavy: not shown light: DIQLTQSPSSLSASVGDRVSITCKASQDVSIAVAWYQQKPGKAPKLLIYTASYRYTGVPDRFSGSGSGTDFTLTISSLQPEDFAVYYCQQHYITPLTFGAGTKVEIKRTVAAPSVFIFPPSDEQLKSGTASVVCLLNNFYPREAKVQWKVDNALQSGNSQESVTEQDSKDSTYSLSSTLTLSKADYEKHKVYACEVTHQGLSSPVTKSFNRGEC",305,157,148
"mAb_Lm_T94F_HC (antibody, human IgG1, kappa) heavy: not shown light: DIQLTQSPSSLSASVGDRVSITCKASQDVSIAVAWYQQKPGKAPKLLIYSASYRYTGVPDRFSGSGSGTDFTLTISSLQPEDFAVYYCQQHYIFPLTFGAGTKVEIKRTVAAPSVFIFPPSDEQLKSGTASVVCLLNNFYPREAKVQWKVDNALQSGNSQESVTEQDSKDSTYSLSSTLTLSKADYEKHKVYACEVTHQGLSSPVTKSFNRGEC",318,240,77.4
"mAb_Lm_Y53N_HC (antibody, human IgG1, kappa) heavy: not shown light: DIQLTQSPSSLSASVGDRVSITCKASQDVSIAVAWYQQKPGKAPKLLIYSASNRYTGVPDRFSGSGSGTDFTLTISSLQPEDFAVYYCQQHYITPLTFGAGTKVEIKRTVAAPSVFIFPPSDEQLKSGTASVVCLLNNFYPREAKVQWKVDNALQSGNSQESVTEQDSKDSTYSLSSTLTLSKADYEKHKVYACEVTHQGLSSPVTKSFNRGEC",309,140,169
"mAb_Lm_Y53S_HC (antibody, human IgG1, kappa) heavy: not shown light: DIQLTQSPSSLSASVGDRVSITCKASQDVSIAVAWYQQKPGKAPKLLIYSASSRYTGVPDRFSGSGSGTDFTLTISSLQPEDFAVYYCQQHYITPLTFGAGTKVEIKRTVAAPSVFIFPPSDEQLKSGTASVVCLLNNFYPREAKVQWKVDNALQSGNSQESVTEQDSKDSTYSLSSTLTLSKADYEKHKVYACEVTHQGLSSPVTKSFNRGEC",307,205,102
